Data taken from EP1801220A2 (Monsanto Technology, LLC, dated 2007).

Legend:
[1] = target: Cry3Bb.11032 (D165G) (Bacillus thuringiensis) (UniProt Q06117); assay: cell-based or functional assay
[2] = target: the molecule itself; assay: SDS-PAGE of unheated samples, Coomassie stain, self-association

## Cry3Bb.11032 (D165G) (from UniProt Q06117 1-652)
[1]
  initial channel conductances when the protein is artificially incorporated into the membrane: 16 fold

B1: Cry3Bb.60 (60 kDa trypsin-truncated Cry3Bb, first 159 residues removed) (other)
chain: SKRSQDRIRELFSQAESHFRNSMPSFAVSKFEVLFLPTYAQAANTHLLLLKDAQVFGEEWGYSSEDVAEFYHRQLKLTQQYTDHCVNWYNVGLNGLRGSTYDAWVKFNRFRREMTLTVLDLIVLFPFYDIRLYSKGVKTELTRDIFTDPIFSLNTLQEYGPTFLSIENSIRKPHLFDYLQGIEFHTRLQPGYFGKDSFNYWSGNYVETRPSIGSSKTITSPFYGDKSTEPVQKLSFDGQKVYRTIANTDVAAWPNGKVYLGVTKVDFSQYDDQKNETSTQTYDSKRNNGHVSAQDSIDQLPPETTDEPLEKAYSHQLNYAECFLMQDRRGTIPFFTWTHRSVDFFNTIDAEKITQLPVVKAYALSSGASIIEGPGFTGGNLLFLKESSNSIAKFKVTLNSAALLQRYRVRIRYASTTNLRLFVQNSNNDFLVIYINKTMNKDDDLTYQTFDLATTNSNMGFSGDKNELIIGAESFVSNEKIYIDKIEFIPVQL
notes: Made by trypsin digestion of solubilized Cry3Bb, which cleaves after R159; The range counts on wild-type Cry3Bb; also called CryB2.60; Δ1-159
[2]
  binding result: binds
